Earlier results on one substance are cited in paper PMC10772121.

One data set has as its target KIR2DL2 (Homo sapiens) (UniProt P43627). The experiment in a line: ELISA. On the technique in general: ELISA stands for enzyme-linked immunosorbent assay.
For a further data set, the target named is KIR2DS4 (Homo sapiens) (UniProt P43632). The experiment in a line: ELISA.
KIR2DS4 (Homo sapiens), sequence (P43632 22-245): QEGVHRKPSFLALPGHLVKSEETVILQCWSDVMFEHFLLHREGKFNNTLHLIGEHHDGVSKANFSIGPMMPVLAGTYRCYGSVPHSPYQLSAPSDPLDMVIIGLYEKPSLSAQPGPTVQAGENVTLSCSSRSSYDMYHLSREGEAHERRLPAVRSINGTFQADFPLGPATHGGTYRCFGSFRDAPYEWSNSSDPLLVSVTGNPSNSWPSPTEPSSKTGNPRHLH

KIR2DL2 (Homo sapiens), sequence (P43627 22-245): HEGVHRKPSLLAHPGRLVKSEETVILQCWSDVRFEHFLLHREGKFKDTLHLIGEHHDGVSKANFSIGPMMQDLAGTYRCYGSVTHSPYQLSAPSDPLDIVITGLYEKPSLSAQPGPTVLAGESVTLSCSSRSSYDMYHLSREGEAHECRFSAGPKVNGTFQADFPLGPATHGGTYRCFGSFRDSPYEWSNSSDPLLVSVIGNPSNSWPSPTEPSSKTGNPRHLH

Usually Kd stands for the concentration at which binding is half-saturated. For the substance Lirilumab, the Kd in the data set with KIR2DL2 (Homo sapiens) is 0.06 nM; with KIR2DS4 (Homo sapiens) it was 20 nM.
